The test addresses Envelope glycoprotein gp120Bal (HIV-1 isolate Bal). Kind of test: ELISA. (ELISA stands for enzyme-linked immunosorbent assay.)

The substance “human germline HV control scFv (human germline b12 HV recombined with human mature b12 D(J)-segments and VL)” gave an EC50 of 0.0241 µM. In other words, the double-digit nanomolar range.

Substance “macaque germline HV control scFv (macaque germline b12 HV recombined with human mature b12 D(J)-segments and VL)” gave an EC50 of 2.5 µM.

The term EC50 denotes the concentration that produces a half-maximal response. Read a high EC50 as a less potent agent.

The record behind these values is publication PMC3167946.
